From the supplement of paper PMC9170038

Tested on: MS2 coat protein
Experiment: apparent KD of MS2 coat protein; designed switch direction (-1 OFF switch, 1 ON switch): -1; higher = weaker reporter binding
In short: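 RNA switches sharing common flanks were transcribed by stalled E. coli RNA polymerase on Illumina chips. A doubling series of SNAP-549-labelled MS2 coat protein, from 0.7 or 1.5 nM to 3 µM, was applied in Tris-HCl pH 7.5 buffer with KCl, MgCl2, BSA, DTT, tRNA and Tween-20. Each step lasted 0.8–1.5 h at the bottom of the series and 10–20 min at the top. Normalised cluster fluorescence was curve-fitted, giving apparent KD as the per-design median over clusters.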

[1] = input ligand: microRNA oligo, concentration not stated
[2] = Eterna round: R95, input ligand: microRNA oligo, concentration not stated
[3] = Eterna round: R95, input ligand: FMN 200 uM
[4] = Eterna round: R95, input ligand: none

Sequence | apparent KD of MS2 coat protein (input ligand: FMN 200 uM) [nM] | apparent KD of MS2 coat protein [1] [nM] | apparent KD of MS2 coat protein (input ligand: none) [nM] | apparent KD of MS2 coat protein [2] [nM] | apparent KD of MS2 coat protein [3] [nM] | apparent KD of MS2 coat protein [4] [nM]
UUUUUUUGGCAAGGAUAUCCUGUGCGGUUCCGGCUCGUGUCUGUUACAUGAGGAUCACCCAUGUGGGAGAAGGUGCCUGUGGUU [Design 87] (Eterna round: R96, puzzle: Exclusion NG 2) | 82.8 | 36.8 | 32.8 |  |  | 
CCGCUACAUGAGGAUCACCCAUGUCAGGAUAUCGUACGUUCGUCGAAAGACGAUCGUACGAGAAGGGUGAGCGG [Eli x1 4.38] (Eterna round: R97, puzzle: Exclusion 1) | 138 |  | 187 |  |  | 
CCUGCACAUGAGGAUCACCCAUGUUAGGAUAUCUCGCCGCCUAAACGAAUGGUGGCCCAGAGAAGGAACAGGGC [Riatbege] (puzzle: Exclusion 1) |  |  |  | 26.5 |  | 
UGGCUAAGAGGAUAUACAUUGAAUAAGAUUCAUGUAAAACUACAUGAGGAUCACCCAUGUAGAAGGCUUGGCCU [Mat - Exclusion 2 - JL Mod - D72] (Eterna round: R97, puzzle: Exclusion 2) | 25.4 |  | 17.4 |  |  | 
GCACGGUUGGUAGGAUAUCAUUGCGAUUAGCUAUGAGAAGGACCACAUGAGGAUCACCCAUGUCCUCUAAUUAGCCUACCGUGC [Eli exng1 - 015] (Eterna round: R96, puzzle: Exclusion NG 1) | 383 | 109 | 151 |  |  | 
GUCAGCUCGUCAGGAUAUAUAUACAUGAGGAUCACCCAUGUAAGAUCAGCACUUCGGUGCAGUAUAUAGAAGGGACGAGCUGAC [ENG2/13-B1] (Eterna round: R96, puzzle: Exclusion NG 2) | 40.6 | 13.7 | 29.1 |  |  | 
GCCAGAGCAGGAUAUUCAAUAUAUCACAUGAGGAUCACCCAUGUCCAGCGAAAGCUGGAGGGAGAAGGGCUCUGGC [Fiskers Ex 5 - 16] (puzzle: Exclusion 5) |  |  |  | 416 | 99.5 | 390
GCACGGUAAUUCCAUAAAACCACAUGAGGAUCACCCAUGUCUCAGGAUAUGGUCUGGAUUACAGGCCAGAAGGGAGAGCCGUGC [Eli exng3 - 060] (Eterna round: R96, puzzle: Exclusion NG 3) | 10.4 | 8.88 | 13.3 |  |  | 
GGCGCCUGAGGAUAUCAGUCUGGAUCAGAAUAGAUCCUGACUGAGAAGGCACAUGAGGAUCACCCAUGUUCGCC [Eli 4x 4.28] (Eterna round: R97, puzzle: Exclusion 4) | 16.4 |  | 14.8 |  |  | 
AUGUUGCGAGGAUAUAUAAGGGUAUAUUCUUAAGAUAUGGAACAUGAGGAUCACCCAUGUAGAAGGUGCAUAAC [JR_Ex2_Sub043] (Eterna round: R97, puzzle: Exclusion 2) | 79.1 |  | 73 |  |  | 
ACACAACAUGAGGAUCACCCAUGUCAGGAUAUGCAGAACAAGAACAAGACAAGACAGAGCAGAAGGGACAACAC [Ex 1 M5] (puzzle: Exclusion 1) |  |  |  | 32.8 |  | 
CGAGUCUACGAGGAUAUACUUUGAAUUAUCGGCGUAGAAGGCGUGACUUGAGGAUCACCCAAGUGAUAAACCUA [Ririaned] (Eterna round: R97, puzzle: Exclusion 6) | 54.1 |  | 39.6 |  |  | 
GUCAGCUCGUGAGGAUAUAUUAACAUGAGGAUCACCCAUGUAAGAUCAGGCUUCGGCCAAUGUUAAUAGAAGGCACGAGCUGAC [ENG2/12-A1] (Eterna round: R96, puzzle: Exclusion NG 2) | 739 | 38.9 | 72.9 |  |  | 
CAAUUCCGAGGAUAUACAUGAGGAUCACCCAUGUCGGGCCUCAGCGUUUAGCGCGUAAGUAGAAGGUGGGUUUC [JL Riri mod 6] (puzzle: Exclusion 3) |  |  |  | 29.5 |  | 
AAGGUCAAGAAUGGAAAUUAAAUACAUGAGGAUCACCCAUGUCAGGAUAUCCAGUAGAGACCUAGGGAGAAGGGACAUGAAAAG [Esonanza] (Eterna round: R96, puzzle: Exclusion NG 3) | 16.1 | 10.3 | 14.7 |  |  | 
AAGAAACAUGAGGAUCACCCAUGUGAGGAUAUGAAAAAGAAAAGAAAAGAAAGAAGGCUCAGAAGGCACAAAGG [salish99-ex1_r3_029] (puzzle: Exclusion 1) |  |  |  | 24.1 | 30.5 | 28.6
UACAUGAGGAUCACCCAUGUUUUGUCGUGUAUGGUAUUUAUCUAGGAUAUCAAUUAAUUUAUUUAUGAGAAGGAGAAUAUUAAU [JMF's solution 14] (Eterna round: R96, puzzle: Exclusion NG 3) | 40.3 | 28.1 | 38.3 |  |  | 
GUACUGACAGGAUAUACAUGAGGAUCACCCAUGUGCCCUUAAAGAUGCAAAGCAUCUAGUAGAAGGGUCUGUAC [Omei Ex3 Model Bachelor's Dilema v23] (Eterna round: R97, puzzle: Exclusion 3) | 66.1 |  | 33.4 |  |  | 

Sequence | apparent KD of MS2 coat protein (input ligand: FMN 200 uM) [nM] | apparent KD of MS2 coat protein [1] [nM] | apparent KD of MS2 coat protein (input ligand: none) [nM] | apparent KD of MS2 coat protein [2] [nM] | apparent KD of MS2 coat protein [3] [nM] | apparent KD of MS2 coat protein [4] [nM]
AGGAAGCAAGGAUAUACGAGGAGAAGGUGUAGAUUUAAAGGACAUGAGGAUCACCCAUGUAGAAGGUGCGAGAA [JR_Exclu2_Sub047] (puzzle: Exclusion 2) |  |  |  | 31.8 | 62.7 | 41.4
ACAUGAGGAUCACCCAUGUUUAUUGGGUACUAUACUAACAGCAAGGAUAUGCAAAUUUUUUUUACGCAGAAGGUGCAGGAACCC [JR_ExcNG3_Sub069] (Eterna round: R96, puzzle: Exclusion NG 3) | 38.3 | 33.1 | 52.8 |  |  | 
ACUCAGUGAGGAUAUCGCCAGAGAGCCGUGACGGCUCCUGAUGAGAAGGCACAUGAGGAUCACCCAUGUAAGCA [EX4 C.7] (Eterna round: R97, puzzle: Exclusion 4) | 204 |  | 134 |  |  | 
UUUUUAAAUGAAGGAUAUACUUAACAUGAGGAUCACCCAUGUGGUGUUGUGAGUGAGUGAGUUUAGUAGAAGGUCAAGUAUUUU [JMF's solution 44] (Eterna round: R96, puzzle: Exclusion NG 2) | 814 | 339 | 392 |  |  | 
AACAGCAGCUUUUUGCGCAACAUGAGGAUCACCCAUGUUGCAUGAGCAGCGUCGGGAGGUACCGGUUUCGUUUUGUC [Eternabot (L1) Solution 45] (Eterna round: R97, puzzle: Sensor, turn-off variant 1) | 18.7 |  | 18.1 |  |  | 
GGAAGGUCAGGAUAUGCGAGGGAGUGGGAAGUAGCAUGGUAGCAGAAGGGACAUGAGGAUCACCCAUGUUAGGA [JR_Exclu4_Sub0102] (puzzle: Exclusion 4) |  |  |  | 28.7 | 35.2 | 40.7
UUUUUAUAACAAGGAUAUACUAAACAUGAGGAUCACCCAUGUAAUAUUAUGAGUGAGAGAGAUAAGUAGAAGGUGUAUUAUUUU [JMF solution 3] (Eterna round: R96, puzzle: Exclusion NG 2) |  | 99.6 |  |  |  | 
AAGUACCGUCACGAUAGUGAUGGUACAACAGGUAGUGAAACAUGAGGAUCACCCAUGUCCUCAAUUGCUCGUCUUAU [Sensor 3 - 84] (puzzle: Sensor v3, turn-off variant 2) |  |  |  | 179 | 773 | 716
GAAAAGGUAGGAUAUACGAAAAAAAAGGGUAGAAAAAAAGCACAUGAGGAUCACCCAUGUAGAAGGACCAAAAG [salish99_ex2_r3_018] (puzzle: Exclusion 2) |  |  |  | 32.5 | 137 | 33.5
GCUAGAGCAGGAUAUUUAAAUCCUCACAUGAGGAUCACCCAUGUAGUCGAAAGACUAAGAAGAGAAGGGCUCUAGC [Omei Ex5 E20] (Eterna round: R97, puzzle: Exclusion 5) | 951 |  | 230 |  |  | 
UUGACGGCAGGAUAUACAUGAGGAUCACCCAUGUAAAUUUUUCGUUUAACUUGAAUGUGUAGAAGGGCCAUGUU [Ex3 #72] (Eterna round: R97, puzzle: Exclusion 3) | 18.2 |  | 19 |  |  | 
UCCUUACAUGAGGAUCACCCAUGUCAGGAUAUCUCCACACUGCGCUUGCGCAGUGUAUAGAGAAGGGACAGGCU [JL ViennaUCT Aner mod 6] (puzzle: Exclusion 1) |  |  |  | 26.5 | 33.4 | 35.8
CCUGCACAUGAGGAUCACCCAUGUUAGGAUAUCUCGCCGUCGGCUUGCCGACGGUAUUAGAGAAGGGACAAGGG [JL Tixe mod 3] (puzzle: Exclusion 1) |  |  |  | 39.5 |  | 
CAGCACUCAGGAUAUACAUGAGGAUCACCCAUGUGUGAACAAGUGAGUGAUUUCCCAUGUAGAAGGGAGAGAUU [Exclusion 3 S1] (Eterna round: R97, puzzle: Exclusion 3) | 183 |  | 98.2 |  |  | 
AACACAUGAGGAUAUACAUGAGGAUCACCCAUGUUGUCACUACACCCGGGUGCCUGGUGUAGAAGGCAUGAAGA [Eternabot (Original) Solution 30] (Eterna round: R97, puzzle: Exclusion 3) | 71.2 |  | 34.1 |  |  | 
UAUAACCGAGGAUAUACAUGAGGAUCACCCAUGUAAUGUAGUAUAAUAUAUGUAAAAUGUAGAAGGUGGGAUGU (Eterna round: R97, puzzle: Exclusion 3) | 44.3 |  | 54.9 |  |  | 
GGUUGGCGAGGAUAUACAUGAGGAUCACCCAUGUGAGAGGAAAAAGUGAGAACGAAAAGUAGAAGGCGCUGACG [salish99_ex3_r3_062] (puzzle: Exclusion 3) |  |  |  | 78.9 | 119 | 225
